Results from patent publication US20250313635A1, “ANTI-INTEGRIN ANTIBODIES AND USES THEREOF” (Merck Sharp & Dohme LLC, priority 2022, published 2025).

Tests used:
[1] = molecular target: human Fibronectin (R&D Systems 1918-FN) (human) (UniProt P02751); test: AlphaLISA integrin-ligand binding, ligand at 1.0 nM
[2] = molecular target: human Vitronectin-GST tagged (EMD Millipore 08-126) (human) (UniProt P04004); test: AlphaLISA integrin-ligand binding, ligand at 10.0 nM
[3] = molecular target: human Vitronectin-GST tagged (EMD Millipore 08-126) (human) (UniProt P04004); test: AlphaLISA integrin-ligand binding, ligand at 1.0 nM
[4] = molecular target: human LAP (R&D system 246-LP) (human) (UniProt P01137); test: AlphaLISA integrin-ligand binding, ligand at 0.5 nM
[5] = molecular target: human LAP (R&D system 246-LP) (human) (UniProt P01137); test: AlphaLISA integrin-ligand binding, ligand at 3.0 nM
[6] = molecular target: mouse fibronectin (Abcam ab92784) (mouse) (UniProt P11276); test: AlphaLISA integrin-ligand binding, ligand at 2.5 nM
[7] = molecular target: mouse fibronectin (Abcam ab92784) (mouse) (UniProt P11276); test: AlphaLISA integrin-ligand binding, ligand at 1.0 nM
[8] = molecular target: mouse Vitronectin (Abcam ab92727) (mouse) (UniProt P29788); test: AlphaLISA integrin-ligand binding, ligand at 5.0 nM
[9] = molecular target: mouse Vitronectin (Abcam ab92727) (mouse) (UniProt P29788); test: AlphaLISA integrin-ligand binding, ligand at 2.5 nM
[10] = molecular target: mouse LAP-6His (Chem partner) (mouse) (UniProt P04202); test: as above
mouse LAP-6His (Chem partner) (mouse), sequence (P04202 30-278 limits assumed): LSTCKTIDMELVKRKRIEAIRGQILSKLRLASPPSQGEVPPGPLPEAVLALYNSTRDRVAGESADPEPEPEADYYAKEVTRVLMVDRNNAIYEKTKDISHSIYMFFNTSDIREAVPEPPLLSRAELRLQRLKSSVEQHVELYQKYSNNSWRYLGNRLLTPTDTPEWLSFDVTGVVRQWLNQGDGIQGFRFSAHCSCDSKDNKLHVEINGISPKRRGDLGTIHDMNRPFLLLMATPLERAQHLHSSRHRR

mouse Vitronectin (Abcam ab92727) (mouse), sequence (P29788 20-478 limits assumed): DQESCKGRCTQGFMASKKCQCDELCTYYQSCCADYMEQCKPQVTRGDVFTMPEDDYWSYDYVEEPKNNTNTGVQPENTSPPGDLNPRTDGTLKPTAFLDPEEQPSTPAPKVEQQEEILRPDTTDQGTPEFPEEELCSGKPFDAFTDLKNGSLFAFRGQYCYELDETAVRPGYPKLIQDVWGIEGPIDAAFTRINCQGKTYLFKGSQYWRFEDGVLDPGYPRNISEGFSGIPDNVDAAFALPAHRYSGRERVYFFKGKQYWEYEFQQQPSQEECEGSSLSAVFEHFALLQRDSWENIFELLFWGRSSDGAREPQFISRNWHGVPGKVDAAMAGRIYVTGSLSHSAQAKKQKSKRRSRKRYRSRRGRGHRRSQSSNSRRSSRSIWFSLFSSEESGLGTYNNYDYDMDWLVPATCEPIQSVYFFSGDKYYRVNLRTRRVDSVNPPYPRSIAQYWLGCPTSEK
human Fibronectin (R&D Systems 1918-FN) (human), sequence (P02751 other isoform, or with tags, fused parts or gaps limits assumed): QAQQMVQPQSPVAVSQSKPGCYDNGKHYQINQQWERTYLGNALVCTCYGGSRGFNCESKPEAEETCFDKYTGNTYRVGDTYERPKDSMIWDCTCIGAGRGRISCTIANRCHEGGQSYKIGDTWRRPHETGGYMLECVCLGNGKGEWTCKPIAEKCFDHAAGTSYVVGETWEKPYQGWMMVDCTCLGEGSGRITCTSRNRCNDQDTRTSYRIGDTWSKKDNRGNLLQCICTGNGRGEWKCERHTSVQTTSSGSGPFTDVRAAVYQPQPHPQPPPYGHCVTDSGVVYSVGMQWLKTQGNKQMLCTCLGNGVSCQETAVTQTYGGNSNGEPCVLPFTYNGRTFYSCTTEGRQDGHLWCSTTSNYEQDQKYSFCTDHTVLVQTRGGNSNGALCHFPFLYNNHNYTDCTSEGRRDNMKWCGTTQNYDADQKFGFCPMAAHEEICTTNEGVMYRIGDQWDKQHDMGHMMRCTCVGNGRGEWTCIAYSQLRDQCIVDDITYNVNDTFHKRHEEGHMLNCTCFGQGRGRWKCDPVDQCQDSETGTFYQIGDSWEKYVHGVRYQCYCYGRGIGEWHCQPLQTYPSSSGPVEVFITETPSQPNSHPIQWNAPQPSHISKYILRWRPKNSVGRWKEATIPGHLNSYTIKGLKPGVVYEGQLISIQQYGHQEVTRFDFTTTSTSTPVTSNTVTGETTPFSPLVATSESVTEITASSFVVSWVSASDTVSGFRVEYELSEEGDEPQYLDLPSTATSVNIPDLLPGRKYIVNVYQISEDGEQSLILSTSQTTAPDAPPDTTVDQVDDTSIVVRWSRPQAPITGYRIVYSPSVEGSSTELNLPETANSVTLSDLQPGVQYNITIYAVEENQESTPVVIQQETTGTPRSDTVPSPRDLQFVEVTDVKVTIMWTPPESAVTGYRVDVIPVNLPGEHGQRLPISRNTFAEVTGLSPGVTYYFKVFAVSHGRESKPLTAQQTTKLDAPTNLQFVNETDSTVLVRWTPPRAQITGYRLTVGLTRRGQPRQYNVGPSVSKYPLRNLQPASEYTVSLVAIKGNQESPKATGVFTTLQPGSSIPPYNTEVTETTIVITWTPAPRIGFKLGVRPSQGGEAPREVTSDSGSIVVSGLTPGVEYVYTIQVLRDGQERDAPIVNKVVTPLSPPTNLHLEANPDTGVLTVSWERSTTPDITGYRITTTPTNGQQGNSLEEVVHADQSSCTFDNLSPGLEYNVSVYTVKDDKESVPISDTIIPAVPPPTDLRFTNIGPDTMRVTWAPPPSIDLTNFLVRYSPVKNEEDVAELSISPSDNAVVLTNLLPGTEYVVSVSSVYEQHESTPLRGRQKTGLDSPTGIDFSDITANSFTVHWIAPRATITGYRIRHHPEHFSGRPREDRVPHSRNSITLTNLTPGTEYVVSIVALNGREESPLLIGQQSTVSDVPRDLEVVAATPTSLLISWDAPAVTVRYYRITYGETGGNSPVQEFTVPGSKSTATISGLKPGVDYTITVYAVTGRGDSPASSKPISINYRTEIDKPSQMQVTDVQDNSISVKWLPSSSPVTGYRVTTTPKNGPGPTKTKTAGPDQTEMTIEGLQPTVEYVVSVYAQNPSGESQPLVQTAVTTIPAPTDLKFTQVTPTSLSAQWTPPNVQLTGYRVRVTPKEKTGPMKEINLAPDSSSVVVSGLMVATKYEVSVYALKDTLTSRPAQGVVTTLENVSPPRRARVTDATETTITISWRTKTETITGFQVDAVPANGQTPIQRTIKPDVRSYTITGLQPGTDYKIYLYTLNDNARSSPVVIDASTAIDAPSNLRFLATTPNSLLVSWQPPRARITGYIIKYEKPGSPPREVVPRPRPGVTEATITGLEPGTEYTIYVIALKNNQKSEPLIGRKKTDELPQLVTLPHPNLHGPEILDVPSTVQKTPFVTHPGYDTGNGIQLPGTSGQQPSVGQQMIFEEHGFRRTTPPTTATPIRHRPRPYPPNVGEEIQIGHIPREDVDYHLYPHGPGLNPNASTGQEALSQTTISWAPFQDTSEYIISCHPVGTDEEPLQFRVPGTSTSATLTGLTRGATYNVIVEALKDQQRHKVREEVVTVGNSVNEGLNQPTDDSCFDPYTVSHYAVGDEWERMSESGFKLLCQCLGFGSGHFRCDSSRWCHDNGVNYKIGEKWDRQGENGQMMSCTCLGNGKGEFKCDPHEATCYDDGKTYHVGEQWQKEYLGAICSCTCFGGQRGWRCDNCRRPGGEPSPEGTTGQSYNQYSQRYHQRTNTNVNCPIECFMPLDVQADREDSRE

“recombinant human αvβ1 integrin extracellular domains (from UniProt P06756 1-992; P05556 1-728) (receptor)” gave an Integrin EC80 (batch dependent) [1] of 1.4 nM.

Work on “recombinant human αvβ3 integrin extracellular domains (from UniProt P06756 1-992; P05106 1-718) (receptor)” yielded an Integrin EC80 (batch dependent) [2] of 3 nM.

In the case of “recombinant human αvβ5 integrin extracellular domains (from UniProt P06756 1-992; P18084 1-719) (receptor)”, the Integrin EC80 (batch dependent) [3] is reported as 2.5 nM.

With “recombinant human αvβ6 integrin extracellular domains (from UniProt P06756 1-992; P18564 1-709) (receptor)” the Integrin EC80 (batch dependent) [4] was 0.1 nM.

“recombinant human αvβ8 integrin extracellular domains (from UniProt P06756 1-992; P26012 1-684) (receptor)” was tested, and the Integrin EC80 (batch dependent) [5] was 1 nM.

For “recombinant mouse α5β1 integrin extracellular domains (from UniProt P11688 1-999; P09055 1-728) (receptor)”, the Integrin EC80 (batch dependent) [6] was 1 nM.

“recombinant mouse αvβ1 integrin extracellular domains (from UniProt P43406 1-988; P09055 1-728) (receptor)” was tested, and the Integrin EC80 (batch dependent) [7] was 4.3 nM.

“recombinant mouse αvβ3 integrin extracellular domains (from UniProt P43406 1-988; O54890 1-717) (receptor)” gave an Integrin EC80 (batch dependent) [8] of 3 nM.

“recombinant mouse αvβ5 integrin extracellular domains (from UniProt P43406 1-988; O70309 1-719) (receptor)” gave an Integrin EC80 (batch dependent) [9] of 0.6 nM.

“recombinant mouse αvβ6 integrin extracellular domains (from UniProt P43406 1-988; Q9Z0T9 1-706) (receptor)” was tested, and the Integrin EC80 (batch dependent) [10] was 1.4 nM.

In the case of “recombinant mouse αvβ8 integrin extracellular domains (from UniProt P43406 1-988; Q0VBD0 1-679) (receptor)”, the Integrin EC80 (batch dependent) [10] is reported as 1 nM.
